Data taken from patent US20060141460A1, “Assays for fprl-1 ligands” (AstraZeneca A B, priority 2002, published 2006).
Several values for one entry are separate records, joined by “and”; a condition that tells them apart may be missing. Equal values may be shown once. Read-outs that look alike come from different tables or passages of the source. Where no end group is shown, it is not given here.

Experiments:
[1] = target: human formyl peptide receptor-like-1 (FPRL-1) receptor (human) (UniProt P25090); experiment: cell-based or functional assay
[2] = target: human formyl peptide receptor-like-1 (FPRL-1) receptor (human) (UniProt P25090); experiment: displacement of [125I]-WKYMVm from membranes of CHO cells stably expressing FPRL-1 (n = 3)
[3] = test system: PMNs; experiment: [Ca2+]i mobilization in PMNs (FLIPR); format: cell-based, human; settings: n as in cell
Text: Neutrophils play a pivotal role in the innate immune response to infection. Since these cells express FPRL-1, we evaluated the effect of CKβ8-1 (aa46-137) on PMNs calcium mobilization using the FLIPR system.

[4] = target: T1, FPRL-1 (Homo sapiens, UniProt P25090); format: cell-based
T1 sequence (P25090 1-351): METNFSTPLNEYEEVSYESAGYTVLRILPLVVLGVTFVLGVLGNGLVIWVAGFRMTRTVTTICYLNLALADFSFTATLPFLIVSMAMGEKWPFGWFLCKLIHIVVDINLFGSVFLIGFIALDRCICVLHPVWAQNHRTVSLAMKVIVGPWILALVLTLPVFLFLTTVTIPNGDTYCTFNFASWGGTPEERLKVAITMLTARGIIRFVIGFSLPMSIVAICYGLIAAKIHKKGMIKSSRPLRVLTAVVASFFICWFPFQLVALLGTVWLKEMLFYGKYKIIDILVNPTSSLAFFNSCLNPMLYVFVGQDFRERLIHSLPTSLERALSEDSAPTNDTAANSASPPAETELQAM

[5] = test system: PMNs; experiment: PMNs chemotaxis; format: cell-based, human
Method: The physiological relevance of CKβ8-1 (aa46-137) as a ligand for FPRL-1 was assessed by PMNs chemotaxis experiments.

[6] = target: T1, FPRL-1; format: cell-based; remark: listed apart in the source
Method: A stable receptor pool of FPRL-1 was developed by applying an antibiotic selection (G418, 1 mg/ml) and the cells were maintained in this selection medium.
A functional assay was performed with FLIPR (Fluorescent Imaging Plate Reader, Molecular Devices, Sunnyvale, Calif.) using the fluorescent calcium indicator Fluo-3 (Molecular Probes, Inc., Eugene, Oreg.) on a 96-well platform. […] On the day of the experiment, the FPRL-1-transfected cells were loaded with fluorescent solution (Dulbecco's modified medium containing 4 μM Fluo-3 and 20% pluronic acid). The cells were incubated at 37° C. for one hour in a humidified chamber. Following the incubation step, cells were washed five times in Hanks' with 20 mM Hepes and 0.1% BSA (pH 7.4). The cells were analyzed using the FLIPR system to measure the mobilization of intracellular calcium in response to different compounds.
Cell lines transiently expressing human FPRL-1 were stimulated with compounds, and calcium responses were compared to parental cells.

[7] = target: T1, FPRL-1; experiment: Inhibition of forskolin-stimulated cAMP accumulation (adenylyl cyclase) in CHO cells expressing FPRL-1; format: cell-based; settings: n as in cell
[8] = target: T1, FPRL-1; experiment: [125I]-W-peptide (WKYMVm) displacement on membranes from CHO cells stably expressing FPRL-1; format: binding
[9] = target: human formyl peptide receptor-like-1 (FPRL-1) receptor (human) (UniProt P25090); experiment: cell-based or functional assay; remark: listed apart in the source
[10] = CHO cells co-expressing Gα16 and FPRL-1, mean±s.e. mean
[11] = calcium mobilization, cells co-expressing Gα16 and FPRL-1

## recombinant human CKβ8-1 (aa46-137) (from UniProt P55773 46-137) (ligand)
[1]
  Adenylyl cylase pIC50 (inhibition of forskolin-stimulated cAMP accumulation), CHO cells (-log of the IC50): 9.02
  EC50, intracellular calcium mobilization (FLIPR), CHO cells transiently expressing hFPRL-1 in Gα16 background, n = 1: 0.69 nM
  EC50, intracellular calcium mobilization (FLIPR), CHO cells transiently expressing hFPRL-1 in Gα16 background, n = 2: 0.14 nM
  EC50, intracellular calcium mobilization (FLIPR), CHO cells transiently expressing hFPRL-1 in Gαqi5 background, n = 1: 2.9 nM
  EC50, intracellular calcium mobilization (FLIPR), CHO cells transiently expressing hFPRL-1 in Gαqi5 background, n = 2: 2.5 nM
  Emax, intracellular calcium mobilization (FLIPR), CHO cells transiently expressing hFPRL-1 in Gα16 background, n = 1: 4120 RFU
  Emax, intracellular calcium mobilization (FLIPR), CHO cells transiently expressing hFPRL-1 in Gα16 background, n = 2: 6330 RFU
  Emax, intracellular calcium mobilization (FLIPR), CHO cells transiently expressing hFPRL-1 in Gαqi5 background, n = 1: 4600 RFU
  Emax, intracellular calcium mobilization (FLIPR), CHO cells transiently expressing hFPRL-1 in Gαqi5 background, n = 2: 5950 RFU
  Intracellular Ca2+ mobilization pEC50 (n = 3), CHO cells (-log of the EC50): 9.13
  concentration giving the maximum percentage of cell migration, PMN chemotaxis: 1 µM
  pEC50, [Ca2+]i mobilization in PMNs (-log of the EC50): 7.42
[2]
  pIC50 (-log of the IC50): 7.97

## MIP-1α: ligand tested in PMNs
[3]
  pEC50: inactive (n = 4)

## MMK-1 (peptide)
[1]
  concentration giving the maximum percentage of cell migration, PMN chemotaxis: 12 µM
  pEC50, [Ca2+]i mobilization in PMNs (-log of the EC50): 7.17

## CKβ8-1 (aa22-137) (from UniProt P55773 22-137) (ligand)
[1]
  Intracellular Ca2+ mobilization pEC50 (n = 3), CHO cells (-log of the EC50): < 5.7
  fold lower potency at FPRL-1 than at CCR1, calcium mobilization: 200 to 300 fold

## SHAAG peptide
[1]
  Intracellular Ca2+ mobilization pEC50 (n = 3), CHO cells (-log of the EC50): 6.74
  fold higher potency than CKβ8-1 (aa22-137), calcium mobilization: 120 fold
  fold lower potency than CKβ8-1 (aa46-137), calcium mobilization: 60 to 200 fold

## CSCC[C@H](NC(=O)[C@@H](NC(=O)[C@H](CCSC)NC(=O)[C@H](Cc1ccc(O)cc1)NC(=O)[C@H](CCCCN)NC(=O)[C@@H](N)Cc1c[nH]c2ccccc12)C(C)C)C(N)=O [W-peptide]
[4]; CHO cells transiently expressing FPRL-1, absence of Gα16
  calcium response: consistent calcium response
[4]; CHO-K1 transiently expressing FPRL-1, PTX pre-treatment
  effect of pertussis toxin (PTX) pre-treatment on ligand-induced Ca2+ response: completely abolished
[5]
  concentration at which the maximum percentage of cell migration was reached: 100 nM

## CCCCC[C@H](O)/C=C/C=C\C=C\C=C\[C@@H](O)[C@@H](O)CCCC(=O)O [Lipoxin A4 (LXA4), Lipoxin A4]
[6]; [10]
  Intracellular Ca2+ mobilization pEC50 (n = 3): <6.0
[7]
  Adenylyl cylase pIC50: <5.7 (n = 2)
[8]
  [125I]-W-peptide (WKYMVm) Displacement pIC50 (n = 3): inactive
[3]
  pEC50: inactive (n = 4)

## Human Prion protein (hPrP) (from UniProt P04156 106-126)
[1]
  Intracellular Ca2+ mobilization pEC50 (n = 3), CHO cells (-log of the EC50): < 6

## CKβ8 (aa22-120) (from UniProt P55773 22-120) (ligand)
[1]
  Intracellular Ca2+ mobilization pEC50 (n = 3), CHO cells (-log of the EC50): < 5

## LWRRKIGPQMTLSHAAG [SHAAG peptide]
[6]; Intracellular Ca2+ mobilization pEC50 (n = 3), CHO cells co-expressing Gα16 and FPRL-1, mean±s.e. mean
  EC50: 182 nM
[6]; [11]
  times less potent at FPRL-1 as compared to CKβ8-1 (aa46-137): 60 to 200 times
  times more potent than the long form CKβ8-1(aa22-137): ~120 times

## IL-8: known to activate CXCR1 and CXCR2 receptors
[3]
  pEC50: 8.76 ± 0.24 (n = 3)

## CKβ8 (aa46-120) (from UniProt P55773 46-120) (ligand)
[1]
  Intracellular Ca2+ mobilization pEC50 (n = 3), CHO cells (-log of the EC50): < 5

B1: Serum Amyloid A protein (SAA) (ligand, UniProt P0DJI8 19-122, looked up, species assumed)
Serum amyloid A-1 protein: RSFFSFLGEAFDGARDMWRAYSDMREANYIGSDKYFHARGNYDAAKRGPGGAWAAEVITDARENIQRFFGHGAEDSLADQAANEWGRSGKDPNHFRPAGLPEKY
[9]
  Adenylyl cylase pIC50 (inhibition of forskolin-stimulated cAMP accumulation), CHO cells (-log of the IC50): 6.38 and 6.48
  Intracellular Ca2+ mobilization pEC50 (n = 3), CHO cells (-log of the EC50): 6.88
  pEC50, [Ca2+]i mobilization in PMNs (-log of the EC50): < 5.7
[6]; [10]
  Intracellular Ca2+ mobilization pEC50 (n = 3): 6.88 ± 0.07
[7]
  Adenylyl cylase pIC50: 6.38 and 6.48
[8]
  [125I]-W-peptide (WKYMVm) Displacement pIC50 (n = 3): <5.52
[8]; listed as SAA
  [125I]-W-peptide (WKYMVm) Displacement pIC50 (n = 3): < 5.52
[3]
  pEC50: <5.7 (n = 3)
